According to publication PMC4258470 (Journal of molecular biology, 2014):
Like-named read-outs stand apart in the source and are kept apart here. Where no end group is shown, it is not given here. [ ]: non-standard residue; d: D form. pS = N[C@@H](COP(=O)(O)O)C(=O)O

B1: TAZ2 domain of mouse CBP (residues 1764-1855) (domain or fragment, UniProt P45481 1764-1855, looked up)
chain: SPQESRRLSIQRCIQSLVHACQCRNANCSLPSCQKMKRVVQHTKGCKRKTNGGCPVCKQLIALCCYHAKHCQENKCPVPFCLNIKHKLRQQQ

How the values were obtained:
[1] = target: T1, E7(1-98), full length HPV16 E7, unphosphorylated, MBP removed (HPV16, UniProt P03129 1-98); assay: NMR titration
T1 sequence: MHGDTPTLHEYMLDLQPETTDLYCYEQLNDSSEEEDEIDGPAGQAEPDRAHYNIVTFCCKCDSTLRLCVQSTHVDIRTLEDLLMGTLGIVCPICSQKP

[2] = target: T2, H6GB1-E7(1-98), full length HPV16 E7 fused to His6-GB1, unphosphorylated (HPV16, UniProt P03129 1-98); assay: pull-down
T2 sequence: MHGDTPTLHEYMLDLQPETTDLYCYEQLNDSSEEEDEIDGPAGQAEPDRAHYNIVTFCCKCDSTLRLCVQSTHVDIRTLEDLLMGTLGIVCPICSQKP

[3] = target: B1; assay: fluorescence polarisation
[4] = target: TAZ1 domain of mouse CBP (residues 345-439) (mouse, UniProt P45481 345-439); assay: NMR titration
[5] = target: B1; assay: NMR titration
[6] = target: T2, H6GB1-E7(1-98), full length HPV16 E7 …; assay: pull-down; remark: listed apart in the source
[7] = target: T3, H6GB1-E7(1-98), full length HPV16 E7 fused to His6-GB1, phosphorylated by CKII (HPV16, UniProt P03129 1-98); assay: pull-down
T3 sequence: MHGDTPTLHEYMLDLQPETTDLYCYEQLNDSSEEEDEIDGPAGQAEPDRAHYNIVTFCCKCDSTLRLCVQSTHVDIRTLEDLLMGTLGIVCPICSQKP

[8] = target: B1; assay: fluorescence polarisation; remark: listed apart in the source

Chain of TAZ1 domain of mouse CBP (residues 345-439) (P45481 345-439): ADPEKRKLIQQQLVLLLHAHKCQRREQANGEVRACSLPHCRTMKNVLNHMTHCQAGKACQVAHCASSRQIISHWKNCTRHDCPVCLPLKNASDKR

## B1
[1]
  binding result: binds
[2]
  binding result: binds

B2: ppE7(1-51), HPV16 E7(1-51) phosphorylated by casein kinase II at serines 31 and 32 (domain or fragment)
chain: MHGDTPTLHEYMLDLQPETTDLYCYEQLND[pS][pS]EEEDEIDGPAGQAEPDRAH
[3]
  Kd: 7 ± 3 nM
[4]
  Kd: 7000 ± 300 nM
[5]
  Kd of the primary binding site (Kd1, 2-site model): 4 ± 3 nM
  Kd of the secondary binding site (Kd2, 2-site model): 33000 ± 2000 nM

B3: E7(1-51) from HPV16, unphosphorylated, tag removed (domain or fragment)
chain: MHGDTPTLHEYMLDLQPETTDLYCYEQLNDSSEEEDEIDGPAGQAEPDRAH
[3]
  Kd: 22 ± 6 nM

B4: pp6b-E7(1-51), phosphorylated E7(1-51) from low risk HPV6b (domain or fragment)
chain: MHGRHVTLKDIVLDLQPPDPVGLHCYEQLVDSSEDEVDEVDGQDSQPLKQH
modifications: also: phosphorylated by CKII, positions not given here
[3]
  Kd: 31 ± 3 nM

B5: 6b-E7(1-51), unphosphorylated E7(1-51) from low risk HPV6b (domain or fragment)
chain: MHGRHVTLKDIVLDLQPPDPVGLHCYEQLVDSSEDEVDEVDGQDSQPLKQH
[3]
  Kd: 79 ± 10 nM

B6: H6Rb-AB, His6-tagged central pocket of the retinoblastoma protein (domain or fragment)
chain: HTPVRTVMNTIQQLMMILNSASDQPSENLISYFNNCTVNPKESILKRVKDIGYIFKEKFAKAVGQGCVEIGSQRYKLGVRLYYRVMESMLKSEEERLSIQNFSKLLNDNIFHMSLLACALEVVMATYSRSTSQNLDSGTDLSFPWILNVLNLKAFDFYKVIESFIKAEGNLTREMIKHLERCEHRIMESLAWLSDSPLFDLIKQSKGSGSTSLSLFYKKVYRLAYLRLNTLCERLLSEHPELEHIIWTLFQHTLQNEYELMRDRHLDQIMMCSMYGICKVKNIDLKFKIIVTAYKDLPHAVQETFKRVLIKEEEYDSIIVFYNSVFMQRLKTNILQYAST
[6]
  binding result: binds
[7]
  binding result: binds

B7: ppE7(1-51) C24A,A50C-594, HPV16 E7(1-51) double mutant, phosphorylated and labelled with Alexa Fluor 594 (domain or fragment)
chain: MHGDTPTLHEYMLDLQPETTDLYAYEQLND[pS][pS]EEEDEIDGPAGQAEPDRC(Alexa Fluor 594)H
[8]
  Kd: 28 ± 6 nM
